# Results taken from patent US20110300156A1 (Genmab, published 2011).
# B1: anti-TF HuMab 013 (antibody, V domains shown)
# VH: EVQLVQSGAEVKKPGESLKISCKGSGYSFTSYWIGWVRQMPGKGLEWMGIIYPGDSDTRYSPSFQGQVTISADKSISTAYLQWSSLKASDTAMYYCARIHRGAGYSSSWPGAFDIWGQGTMVTVSS
# VL: DIQMTQSPSSLSASVGDRVTITCRASQGISRWLAWYQQKPEKAPKSLIYAASSLQSGVPSRFSGSGSGTDFTLTISSLQPEDFATYYCQQYDSDPITFGQGTRLEIK
# notes: Human monoclonal antibody from HuMab mice; also called HuMab-TF-13
# B2: anti-TF HuMab 109 (antibody, V domains shown)
# VH: QVQLVESGGGVVQPGRSLRLSCPASGFTFSIYAMHWVRQAPGKGLEWVAVVSNDGYNKYYADSVKGRFTISRDNSKDTLYLQMNSLRAEDTAVYYCARDGQLGRGYFDYWGQGTLVTVSS
# VL: EIVLTQSPATLSLSPGERAILSCRASQSVSSYLAWYQQKPGQAPRLLIYDASNRATGIPARFSGSGSGTDFTLTISSLEPEDFAVYYCQQRSNWPLTFGGGTKVEIK
# notes: Human monoclonal antibody from HuMab mice
# Tests used:
# [1] = molecular target: T1, murine tissue factor (TF) on transfected HEK293F cells (murine, UniProt P20352 29-294); experiment: FACS on transfected HEK293F cells, 30 µg/mL antibody [Figure 18; no figure label on the sheet]
# T1 construct: whole, on cells; also called murine TF; TFmm
# T1 sequence (looked up): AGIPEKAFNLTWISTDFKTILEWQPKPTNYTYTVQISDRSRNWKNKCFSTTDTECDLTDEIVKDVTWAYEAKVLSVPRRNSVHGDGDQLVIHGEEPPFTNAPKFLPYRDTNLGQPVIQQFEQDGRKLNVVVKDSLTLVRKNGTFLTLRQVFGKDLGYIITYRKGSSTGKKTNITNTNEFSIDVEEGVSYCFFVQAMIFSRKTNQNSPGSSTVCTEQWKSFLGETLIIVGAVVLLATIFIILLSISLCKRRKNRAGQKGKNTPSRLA
# Experimental: (§1) Cells were resuspended in PBS (2×10⁶ cells/ml), put in 96-well V-bottom plates (50 μl/well). 50 μl of serially diluted HuMab in FACS buffer (PBS supplemented with 0.1% BSA and 0.02% Na-azide) was added to the cells and incubated for 30 minutes on ice. After washing three times with FACS buffer, 50 μl of phycoerythrin (PE)-conjugated goat anti-human IgGFc (Jackson ImmunoResearch), diluted 1:100 in FACS buffer, was added. After 30 minutes on ice (in the dark), cells were washed three times, and specific binding of the HuMabs was detected by flow cytometry on a FACSCalibur (BD Biosciences). HuMab-KLH was used as a negative control. Mouse anti-TF followed by PE-conjugated anti-mouse IgGFc was used as positive control. Binding curves were analyzed using non-linear regression (sigmoidal dose-response with variable slope) using GraphPad Prism V4.03 software (GraphPad Software, San Diego, Calif., USA).
# To determine domains important for binding of anti-TF HuMabs to human TF, DNA shuffling was performed between human and murine TF. Shuffle constructs were prepared from DNA encoding human TF, by replacing human domains with murine domains and from DNA encoding murine TF by replacing murine domains with human domains.
# [2] = molecular target: T2, human tissue factor (TF), membrane-bound on cells (human, UniProt P13726 33-295); experiment: FACS, A431 cells, 30 µg/mL
# T2 construct: whole, on cells; also called cellular TF
# Summary of the method: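 Specific HuMab binding to cell-surface antigen is detected by flow cytometry using a PE-conjugated anti-human IgGFc secondary.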
# [3] = molecular target: T3, TFECDHis (extracellular domain of tissue factor, amino acid 1-251, with C-terminal His tag) (human, UniProt P13726 33-251); experiment: competition ELISA, inhibition of FVIIa (100 nM) binding to coated TFECDHis
# T3 construct: range 1-251; The stated range 1-251 starts at residue 1 of NP-001984; also called extracellular domain of TF
# Experimental: ELISA plates were coated overnight with TFECDHis (0.5 μg/mL, 100 μL per well). Plates were emptied, blocked with PBS containing 2% (v/v) chicken serum (1 hour, RT), and emptied again. […] Plates were washed and incubated with swine-anti-rabbit IgG-HRP antibody (1:2,500; DAKO). After washing, the immune complexes were visualized using ABTS as a substrate.
# [4] = molecular target: T2, human tissue factor (TF), …; experiment: FACS on AsPC-1 cells (~175.000 TF molecules/cell) [panel AsPC-1 cells]
# Experimental: as §1
# (§2) Binding of anti-TF HuMabs to membrane-bound TF on cell lines expressing different levels of TF was determined by FACS analysis, essentially as described supra. Mouse anti-TF antibody followed by PE-conjugated anti-mouse IgGFc was used as a positive control. Fluorescence was measured on a FACSCantoII. Binding curves were analyzed essentially as described supra, using GraphPad Prism 5 software. The amount of TF molecules on cell lines was determined by Qifi kit (Dako, Glostrup, Denmark), according to the manufacturer's instructions.
# [5] = molecular target: T2, human tissue factor (TF), …; experiment: FACS on SK-OV-3 cells (~60.000 TF molecules/cell) [panel SK-OV-3 cells]
# Experimental: as §1
# as §2, with “Mouse anti-TF antibody followed by PE-conjugated anti-mouse IgGFc was used as a positive control.” left out
# [6] = molecular target: T1, murine tissue factor (TF) on …; experiment: FACS on transfected HEK293F cells, 30 µg/mL antibody [panel M]
# [7] = molecular target: T3, TFECDHis (extracellular domain of …); experiment: SPR avidity format: TFECDHis immobilized, bivalent HuMab as analyte (printed as avidity nM)
# Experimental: Antibody binding to TF was analyzed by surface plasmon resonance in a BIAcore 3000 (GE Healthcare). TFECDHis was used for the analysis. HuMab antibodies (500 resonance units) were immobilized on the CM-5 sensor chip according to the procedure recommended by the manufacturer. Briefly, after surface activation by EDC and NHS HuMab antibody was injected over the activated CM-5 surface in 10 mM sodium-acetate, pH ranging from 4.0 to 5.5 at 5 μl/min. followed by 1 M Ethanolamine for deactivation. Concentration series of TFECDHis in HBS-EP buffer were injected over the immobilized antibodies at a flow rate of 30 μl/min for 180 sec. Regeneration of the HuMab surface was performed by injection of 10 mM Glycine-HCl pH 2.0 or 10 mM sodium acetate pH 3.0. Kinetic analysis was performed using double reference subtraction and model 1:1 (langmuir) binding analysis.
# TF (TFECDHis) binding to TF-specific HuMabs was determined essentially as described above, with TFECDHis being immobilized on the CM-5 sensor chip (300 resonance units), and concentration series of Humab antibodies used for kinetic analysis. Kinetic analysis was performed using double reference subtraction and model 1:1 (langmuir) binding analysis.
Binder,binding result [1],Max MFI [2],IC50 [3],max inhibition [3],EC50 (read off the curve) [4],EC50 (read off the curve) [5],binding result [6],Kd [7]
B1,no binding (tested: 30 µg/mL),3620,19.3 nM,27%,,,,
B2,,3120,,90%,~0.1 µg/mL,~0.04 µg/mL,no binding (tested: 30 µg/mL),0.01 nM
